Like-named read-outs stand apart in the source and are kept apart here.
T1: marmoset monkey IL4Rα-his protein (marmoset monkey)
T1 construct: Custom made by Sino biological; no cleavage site stated; also called cal-IL4Rα-his; Cal-IL4Rα
T1 chain: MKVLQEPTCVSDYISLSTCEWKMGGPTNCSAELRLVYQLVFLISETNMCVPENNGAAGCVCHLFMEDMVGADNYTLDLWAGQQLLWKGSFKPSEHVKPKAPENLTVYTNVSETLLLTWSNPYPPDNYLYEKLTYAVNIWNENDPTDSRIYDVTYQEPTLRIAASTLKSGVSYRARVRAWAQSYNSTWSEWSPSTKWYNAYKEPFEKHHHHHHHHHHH


Assays:
[1] = biological target: human IL4Rα expressed on HEK293T-IL4Rα-STAT6-STAT6LUC-LB2 cells (human, UniProt P24394 26-825); experiment: cell-based or functional assay
[2] = biological target: T2, recombinant human IL4Rα-his protein (in house made) (human, UniProt P24394 26-232, limits assumed); experiment: capture ELISA, biotin-IL4Rα-his
T2 construct: also called Human IL4Ra-his

[3] = biological target: T3, human IL4Rα expressed on 293F-IL4Rα cells (human, UniProt P24394 26-825); experiment: flow cytometry, 293F-IL4Rα cells
T3 construct: whole, on cells; also called cell surface human IL4Rα
Description: Then, 2×10⁵ cells per well in 96 well-plates were incubated in 100 μL of the anti-IL4Rα antibodies or controls of various concentrations (starting at 80 nM with a 4-fold serial dilution) in FACS buffer for 40 minutes on ice. […] Following an incubation of 40 minutes at 4° C. in dark, cells were washed three times and resuspended in FACS buffer. Fluorescence was measured using a Becton Dickinson FACS Canto II-HTS equipment. Data was analyzed using Graphpad Prism software and EC₅₀ values were reported.

[4] = biological target: T1, marmoset monkey IL4Rα-his protein; experiment: indirect ELISA, coated cal-IL4Rα-his
[5] = biological target: T4, cynomolgus monkey IL4Rα-his protein (cynomolgus monkey, UniProt A0A2K5V580 33-239); experiment: indirect ELISA, coated cyno IL4Rα-his
T4 construct: Bought protein; also called Cynomolgus IL4Rα; Cyno-IL4Rα-his; not shown: his tag

[6] = biological target: T3, human IL4Rα expressed on 293F-IL4Rα …; experiment: flow cytometry on 293F-IL4Rα cells
[7] = biological target: T1, marmoset monkey IL4Rα-his protein; experiment: indirect ELISA on coated cal-IL4Rα-his
[8] = biological target: T2, recombinant human IL4Rα-his protein (in …); experiment: SPR (Biacore), antibody captured, IL4Rα-his flowed
[9] = biological target: T2, recombinant human IL4Rα-his protein (in …); experiment: SPR (Biacore), antibody captured, IL4Rα-his flowed; remark: listed apart in the source
[10] = biological target: T4, cynomolgus monkey IL4Rα-his protein; experiment: indirect ELISA on coated cynomolgus IL4Rα-his
[11] = biological target: T3, human IL4Rα expressed on 293F-IL4Rα …; experiment: flow cytometry, blocks biotin-IL4 binding to 293F-IL4Rα cells
Description: Then, 1×10⁵ cells per well in 96 well-plates were incubated in 100 μL of the anti-IL4Rα antibodies or controls of various concentrations (starting at 80 nM with a 4-fold serial dilution) in FACS buffer for 40 minutes on ice. The plates were washed twice with FACS buffer, and added and incubated for 40 minutes at 4° C. in dark with 100 μl/well 1.67 nM biotin-labeled human IL4 protein (Sino biological inc., Cat #11846-HNAE). The plates were washed twice with FACS buffer, and then added and incubated for 40 minutes at 4° C. in dark with 100 μl/well R-Phycoerythrin Streptavidin (1:500 dilution in FACS buffer, Jackson Immunoresearch, Cat #016-110-084). Cells were washed twice and resuspended in FACS buffer. Fluorescence was measured using a Becton Dickinson FACS Canto II-HTS equipment. Data was analyzed using Graphpad Prism software and IC₅₀ values were reported.

[12] = biological target: T2, recombinant human IL4Rα-his protein (in …); experiment: competitive ELISA, blocks biotin-IL4 binding to coated IL4Rα-his
Description: Serially diluted anti-IL4Rα antibodies or the controls (starting at 80 nM with a 4-fold serial dilution) in 2.5% w/v non-fatty milk in PBST, 100 μl per well, were added to the IL4Rα bound plates, and incubated with the human IL4Rα-his proteins at 37° C. for 40 minutes. Plates were washed 4 times using wash buffer, and then added and incubated for 40 minutes at 37° C. with 100 μl/well of 0.56 nM biotin-labeled human IL4 protein (Sino biological inc., Cat #11846-HNAE). Plates were washed again using wash buffer. Thereafter, the plates were added with 100 μl/well of streptavidin conjugated HRP (1:10000 dilution in PBST buffer, Jackson Immunoresearch, Cat #016-030-084) and incubated for 40 minutes at 37° C. Plates were washed again using wash buffer. Finally, TMB was added and the reaction was stopped using 1M H₂SO₄, and the absorbance was read at 450 nm. Data was analyzed using Graphpad Prism software and IC₅₀ values were reported.

[13] = biological target: T3, human IL4Rα expressed on 293F-IL4Rα …; experiment: flow cytometry on 293F-IL4Rα cells, blocked ligand biotin human IL4
[14] = biological target: T2, recombinant human IL4Rα-his protein (in …); experiment: competitive ELISA, blocks biotin-IL4Rα-his binding to coated Benchmark (competitor)
Description: The ability of the anti-IL4Rα antibodies of the disclosure to block benchmark-human IL4Rα binding was measured in a competitive ELISA assay. Briefly, the benchmark was coated on 96-well micro plates at 2 μg/mL in PBS, 100 μl per well, and incubated overnight at 4° C. The next day, plates were washed with wash buffer (PBS+0.05% w/v Tween-20, PBST), and blocked with 5% w/v non-fatty milk in PBST for 2 hours at 37° C. tiring plate blocking, the anti-IL4Rα antibodies of the disclosure or controls were diluted with biotin labeled human IL4Rα-his proteins (prepared in-house with SEQ ID NO: 57, 0.55 nM in 2.5% w/v non-fatty milk in PBST), starting at 100 nM with a 4-fold serial dilution, and incubated at 25° C. for 40 minutes. After plate washing, the antibody/IL4Rα-his mixtures were added to benchmark coated plates, 100 μl per well. After incubation at 37° C. for 40 minutes, plates were washed using wash buffer. Then the plates were added and incubated with 100 μl/well streptavidin conjugated HRP for 40 minutes at 37° C. to detect biotin-labeled human IL4Rα-his bound to plates. Plates were washed again using wash buffer. Finally, TMB was added and the reaction was stopped using 1M H₂SO₄, and the absorbance was read at 450 nm. Data was analyzed using Graphpad Prism software and IC₅₀ values were reported.

[15] = biological target: T2, recombinant human IL4Rα-his protein (in …); experiment: competitive ELISA: coated human IL4Rα-his, blocked ligand biotin human IL4
[16] = biological target: T2, recombinant human IL4Rα-his protein (in …); experiment: capture ELISA: antibody captured on anti-IgG Fc plate, biotin human IL4Rα-his detected
[17] = biological target: T2, recombinant human IL4Rα-his protein (in …); experiment: competitive ELISA: antibody mixed with biotin human IL4Rα-his, competitor plate-coated Benchmark

Inhibition on IL4 induced STAT6 phosphorylation (IC50, nM) [1] [nM]	Inhibition on IL13 induced STAT6 phosphorylation (IC50, nM) [1] [nM]	EC50 [2] [nM]	EC50 [3] [nM]	EC50 [4] [nM]	EC50 [5] [nM]	EC50 [6] [nM]	EC50 [7] [nM]	Kd [8] [nM]	koff [8] [s⁻¹]	kon [8] [M⁻¹ s⁻¹]	Kd [9] [nM]	EC50 [10] [nM]	IC50 [11] [nM]	IC50 [12] [nM]	IC50 [13] [nM]	IC50 [14] [nM]	IC50 [15] [nM]	EC50 [16] [nM]	IC50 [17] [nM]	Binder
0.26	0.66	0.24	0.52	1.06	137	0.517	1.06	3.69	0.00113	306000	3.88	137	0.6	1.02	0.601	0.76	1.02	0.237	0.763	huB8G11F2B7G5E8-V14 (antibody, human IgG4 S228P, kappa, V domains shown, Humanized, human IgG4/kappa; also called huBSG11F2B7G5E8-V14) VH: EVQLVQSGAEVKKPGATVKISCKVSGFNIKDTYMHWVKQAPGKGLEWMGRIDPTNGYTIYASKFQGKATITADTSSNTAYMELSSLRSEDTAVYHCVSRRPWFAYWGQGTLVTVSS VL: DIVMTQTPLSLSVTPGQPASISCRSSQSIVHSNGNTYLEWYLQKPGQSPQLLIYKVTNRFSGVPDRFSGSGSGTDFTLKISRVEAEDVGVYYCFQGSHVPYTFGQGTKLEIKR
0.4	0.63	0.27	0.43	0.8	914	0.426	0.799	3.1	0.00162	521000	4.1	914	0.54	1	0.538	1.2	1	0.274	1.2	huB8G11F2B7G5E8-V2 (antibody, human IgG4 S228P, kappa, V domains shown, Humanized, human IgG4/kappa; also called huBSG11F2B7G5E8-V2) VH: EVQLVQSGAEVKKPGATVKISCKVSGFNIKDTYMHWVKQAPGKGLEWVGRIDPTNGYTIYASKFQGKATITADTSSNTAYMELSSLRSEDTAVYHCVSRRPWFAYWGQGTLVTVSS VL: DIVMTQTPLSLSVTPGQPASISCRSSQSIVHSNGNTYLEWYLQKPGQSPQLLIYKVTNRFSGVPDRFSGSGSGTDFTLKISRVEAEDVGVYYCFQGSHVPYTFGQGTKLEIKR
0.3	0.81	0.27	0.41	0.73	7.12	0.414	0.726	3.21	0.00185	577000	5.5	7.12	0.51	0.82	0.513	1.24	0.825	0.275	1.24	huB8G11F2B7G5E8-V4 (antibody, human IgG4 S228P, kappa, V domains shown, Humanized, human IgG4/kappa; also called huBSG11F2B7G5E8-V4) VH: EVQLVQSGAEVKKPGATVKISCKASGFNIKDTYMHWVKQAPGKGLEWMGRIDPTNGYTIYASKFQGKATITADTSSNTAYMELSSLRSEDTAVYHCVSRRPWFAYWGQGTLVTVSS VL: DIVMTQTPLSLSVTPGQPASISCRSSQSIVHSNGNTYLEWYLQKPGQSPQLLIYKVTNRFSGVPDRFSGSGSGTDFTLKISRVEAEDVGVYYCFQGSHVPYTFGQGTKLEIKR
